Publication PMC3245711

Target: T1, human KCNJ2 channel (pND-CTFH construct, C-terminal FLAG and octa-histidine tags) (human), P63252
T1 chain: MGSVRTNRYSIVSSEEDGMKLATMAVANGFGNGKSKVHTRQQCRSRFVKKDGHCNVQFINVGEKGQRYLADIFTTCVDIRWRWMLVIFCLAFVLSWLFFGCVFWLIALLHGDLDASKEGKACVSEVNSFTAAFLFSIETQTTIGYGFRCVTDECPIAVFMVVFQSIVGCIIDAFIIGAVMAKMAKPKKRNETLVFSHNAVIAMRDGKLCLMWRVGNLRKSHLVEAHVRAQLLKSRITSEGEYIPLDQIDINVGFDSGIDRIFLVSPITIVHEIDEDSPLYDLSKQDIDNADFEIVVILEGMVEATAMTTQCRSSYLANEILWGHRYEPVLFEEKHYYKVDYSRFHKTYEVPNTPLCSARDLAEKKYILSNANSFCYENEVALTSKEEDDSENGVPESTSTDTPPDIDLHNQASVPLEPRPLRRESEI
Test: SEC
Settings: remark: other sources report otherwise

stoichiometry N: 4
B1: human KCNJ2 channel (pND-CTFH construct, C-terminal FLAG and octa-histidine tags), P63252 1-427 (natural protein)
chain: T1 chain
